In the DeepSol protein solubility set:

Assay: soluble on expression in E. coli; label from the status in PepcDB or PDB records

Row | Sequence | soluble on expression in E. coli
1 | MSLEEETYVVFDVETTGLSAVYDTIIELAAVKVKGGEIIDKFEAFANPHRPLSATIIELTGITDDMLQDAPDVVDVIRDFREWIGDDILVAHNASFDMGFLNVAYKKLLEVEKAKNPVIDTLELGRFLYPEFKNHRLNTLCKKFDIELTQHHRAIYDTEATAYLLLKMLKDAAEKGIQYHDELNENMGQSNAYQRSRPYHATLLAVNSTGLKNLFKLVSLSHIHYFYRVPRIPRSQLEKYREGLLIGSACDRGEVFEGMMQKSPEEVEDIASFYDYLEVQPPEVYRHLLELELVRDEKALKEIIANITKLGEKLNKPVVATGNVHYLNDEGHHHHHH | not soluble
2 | MSLEEPRGINYVELSTDDLGTLTRQMHQLGFQFIGYHRSKPHVQLWLRGQARIIVSEVTEEAGTTSAPVNGTFLRGIGFEVTDSQSAMDRAALLHAEEVPRDQAHDDEVLRGVFAPDGSEVFFHQFDAATPAWIKEFGHDHDEQVSHIDHVNLAQPSNHYDEAVLFYTSLLALHAQSSQDVPSPSGLVRSQVMSSTDGSVRMPLNVSPQPNAEAVAGRGIGSVVEAYPEHVAVACEDIFQAAATALSRGLDFLPVPQNYYEDLDSRFDLDLEFLQRLQENHVLYDRDEHGEFLHFYTSTIGSVFFEMIERRGDYLGFGAPDAPVRLAAQHRKNSQREGHHHHHH | not soluble
3 | MSLEFLNSLSYGISSHEVNNEFKQIFRELLTNHIIKEHKNKYYLNNGFAFGVLDISSKGTGFLQCFDESFKKDLLIENKNLKGANYKDIVAVKLLPLKKKRPSAKVILVLKRANETSLMITKRYGEAVLGMNIKTGLSTALKASQKSLKALPLGTILKIENENNNIIEVLGHIDDESVDEKISLALFNKNNEFSDACIKEALANGDSVDASMYENRMDLRALPFCTIDPIHAKDFDDAIYFDTQKREIYVAIADVSEYVYAYSAIDKEARNRGFSIYFPHIAIPMLPRPLSENICSLKPHLDRLAYCFKITLNHENKVIKEELFEGIINSKRRFNYDEVDEILIQKPDLKELSWLYELFEITKNLRKMRLKNAFEFRTEELRMNLDENLSLKSTVFEKDTPSHNLIEDCMLLANKAAAKLIDIGVFRNHLSADVRKIDKLLNELRELGIDVNFKPNLPELIRDIQALADELNLRAEVDKLIIKAQKKAEYSSVNAGHFGLGFDKYSHFTSPIRRYSDLILHRLLKAKQKNDEKLFNYLLLNIESTCENLSTLEREADKVAFDFMDRKFARWAAKNIGKKFKALVVQNDGVCIAKLDDEIKGADIILYDTRVNLLENVEVQIMEADIVMAKIYAKITQRLIKEENVEGHHHHHH | not soluble
4 | MSLEFQLDLIRGEHMEIEKLLEQVNWEKNNGIVPVIVQDEKGEVLTLAYMNKEALRKTLETGIAHYYSRSKGRIRMKGEVSGNIQTVKEIKIDCDNDALLLIVSPKGPACHTGNYSCFYRKLGEPERVLPIDYSLSILKELEEIIKRRKETPVEGSYTSKLFKEGREKIYKKFGEEAIEVLVAEKRERIIYEVADLLYHLLVLLTYNDISLGEVMNELRRRRKEGHHHHHH | soluble
5 | MSLEIKPEDTWRLEDIFSTDDAWEKEFQEVKQLLPDAGGFQGKLGDSADKLYEALQYQDHLLERLGRLYSYAHMRYDQDTTNSFYQGLDDRIKNLYSQAASSLAYIVPEILAIDEEKISSFLDEKEELRLYKHSLEEINLQRPHVLSAEAEALLAQASEVLDAPGNTFGMLNNADLEFPSIKDENGEEVEVTHGRYIRFLESDDQRVRRDAFKAVYDTYGKFKNTFSSTLSSNVKKDNFYARVRNYDSARHAALSDNNIPESVYENLVNTVNDNLHLLHRYIKLRKEVLGLEKLHMYDLFTPLVKDVKMEIPYDEAKDYVLKGLEPLGEEYLSVLKEGFENRWVDVHENKGKRSGAYSSGAYGTNPYILMNWQDNVNNLFTLAHEFGHSVHSYYTRKTQPYPYGNYSIFVAEVASTCNEALLNDYLLKTIDDDQKRLYLLNHYLEGFRGTVFRQTMFAEFEHQIHQKAQNNEALTAEALTQDYYELNKKYFGEEDIIIDEEIGLEWSRIPHFYYNYYVYQYATGFSAATALSKQILEEGEPAVERYINFLKAGSSDYPIEVLKKAGVDMTSPAPIADACKVFEEKLNEMEELLNREGHHHHHH | soluble
6 | MSLEILTAGPMLTVQDAGRFGLRHMGVSPAGPIDRAAMALANALVGNDPGAAALEFAGPAGRFRCDRPVRFAVAGADCPLRIDARTVSPGESHRLNPGETLTVGVPEGAVWAYLAFSGAIASPEVLGSRATHLRSGVGGRALGAGDRLPLGEDDPEAPCLRPGLRLEAAAPFRETGPIRLILGPQDDHFAPEVIARLTGCDFTVTPQRDRMAMVLGGVELPAERGHDIVSDGTVPGSVQVPGSGTPLVLLAESQTTGGYPKIGTVASVDLARLAQMPVGARFRFALISAREGEDLWIARQAR | not soluble
7 | MSLEKAPHLTILVSIDGFRADYLDRGDTPVMKALAENGARAAMRPSFPSVTFPNHYTLITGKRPDRNGIVANTMVDPSVSAEKFTMRSLDPAWWSQAKPFWVSVEQQGKRAAAMFWPGSEVEIDGVRPSRWVKFDQTMPGDARVDQVLNWLDSADGPPIAFSTLYFDIVDTQGHHYGPESPEVRAAAASVDAALGRLVAGLKARGRFESTDIVIVADHGMAPLPAANRVVLDDLVDVSKIRLVTTGAVTAFSPMPGERKAVEAAFLSKPLPHMTCWKKNRIPARFHYGRNSRVPAIVCLSETGWYTTTEAAKQKPSEWDGKDGGAHGFDPYDPTMQAVFVAHGPSFKSGVALPAFDNVDVYALLAKVTGVRPEKTDGSLKVVREEGHHHHHH | not soluble
8 | MSLEKLSHGLVTSRNMIRYKSSQLPERVLQFGEGNFLRGFIDWMIQQMNKQNVFNGRVVAIQPTPHGKVVPKLQEQDSLYTVWLRGIADGETVDHHEVITSISRGLNPYTNWQDVLEVAASPDISVVFSNTTEAGLTYLEEGYDKEKAPLSFPGKLAACLWHRYETLGWGEGSGLVIIPCELVEQNGKVLKELVCRYAKAWNFPQEFFTWLERENEFCHTLVDRIVPGFPSDTADECFERLGYEDILLTVAEPYHLFIIEGSERVRKLLPFNEAGLHVRWNHLEKHRNMKVRVLNGTHTFMFALSYLSGVDTVGEAMADEQLCSFIRKGLFEEIIPCVDAPEQEVTAFAETVLERFENPFLQHRLTDIGLNAVNKFRTRLMPTFNDYVAQTGEAPTYLLFSLAALINYYRGVEEDGPFLIGRRREDSYLIRDDLEVIEAFKVGWQQVNTGKLSLAQLCEDLLSKRELWGVDLSMERKVVDKVAESLQIIVEKGMRQAISGVLNQIGGNNHVHKEGHHHHHH | soluble
9 | MSLEKWRIYEELTNAVREFESINPVRLIPEVGTNFVYSLPLPYARSTKDVAGVKGRIVKYGNSVKAVGPVEFGASDHLARAVLTYMRFYPEYRSAINIRYSREIIEEIIEIAQERGFKVSFYDRREEPEEIKAKEGATIPWGIETAIKRIKERPDIIYHLGDVGKEPMILVFGRNPREVLEKIKMLIEGHHHHHH | soluble
10 | MSLELKKFFVLVLLLGSVCPAFCGGDTLHCRFYFPVGSAIPDLSYRDNGPRLDSFLSSIRSLQERAVLRRVRLRSGASPEGNSMLNRRLSDERLVSLRAVMRERLSVPDSVLVCLSSGEDWEGLSVLVGESDMPCRDEVLRILRDTPVWVVRGGKVVDSRKRQLMNLRGGSVWRYMAEHFFPELRNCTVVECEFGPVISGNDREIAVYQKEAEARDTVILRDTVERTVVIRDTVQVPASVGNALKPFYMGLKTNLLYDALLVPNLGVEFYLGRGWSFGGNWMYAWWKSDRHHNYWRIYGGELALRKYFGRRAAEKPLAGHHLGLYGQLFTYDFEVGGTGYMGGRPGGTLWEKMNYAVGLEYGYSLPIARRLNLDFVIGVGYWGGEYHKYDPVDGCYVWKETLQRHWFGPTKAEVSLVWLLGRGNHNEKGGKEGHHHHHH | not soluble
11 | MSLELLSKLETKIQATLETIELLKMELEEEKQKTSTLSEQNNQLIEQNQQLQQELTSWNEKVTGLVGLLNSEI | soluble
12 | MSLELVSLLMQDCQSTGDIQSKLKRLFAGTIEQMLEAEMEDHLGYEKNSIEGNNSGNSRNGYNRKTIISDYGASEIAVPRDRNGEFEPKILEKRQTRTDEIEQKILSMYSKGMSQRDIEDTLREIYGAEIPQTLISKITDKILPEVNEWQNRPLESVYPIIYFDGIVFKSRKDSQIINKCVYSVLGIDMNGHKDILGIWLSENESASFYASICSDLKKRGIQDIFIACHDNLKGLGEAINAVFPKTKQQLCIVHQIRNSTKFVQYKDRKAICADLKKIYGAVNLDDAEYAKEEFREKWDKKYPSILRSWDANWAELTTFFNYPEQIRHLIYTTNAVEAYHRMVRKFTKTKSIFPTDDSIRKVVFLSSREITKKWTQPSRGWPMAYSQIMIFFADRFIAEGHHHHHH | soluble
13 | MSLENDFPLKGKTVLVTRNKAQAASFQQKVEALGGKAVLTSLITFRRALPNDVAEQVREDLAAPGWLVFTSVNGADFFFSYLKENQLILPAHKKIAAVGEKTARRLKMHNVSVDVMPQEYIAEQLADALKQHAEPGETITVMKGNLSRDVIKQELVPLGFEVKEWVLYETIPDEEGIEALKDAAGQYSFDYVTFTSSSTVHTFMHVLGEELKKWKANGTACISIGPLTNDALLTYGITSHTPDTFTIDGMLELMCSMSREEERIEGHHHHHH | soluble
14 | MSLENYWVDERTLVVSGDFFGVSTGLLGGWKRVRHAFNHTVSEEFHSMEPAEYLRKVARGYGLKSYFGLLTSVPIEKLSVKGCGEVTVFATAGVMNPNERVGTINIIAVFECRMSRAAMLNAIITATEAKTKALLEEGHNFTGTNTDAVVVLCTQKGGYHRYCGPASEVGQKLWRCAGEAVKDSLARWEGHHHHHH | not soluble
15 | MSLEPCWKVGFAETSGCLPKLCIAQLRLPAFCNSEGLFGLFDGETGNGVPNLLVKAIPKILLEERTVKETANDYMKYTLLSAHRELKQRGQQEAVNVTLCHIARSRLPTEAMSYLPQTVASGRKFILRVATVGESSAVLIKHNRCVLLNKGSPARKLGLSANFPVTVPDPEVQEVVLTDADEYLVLGNRKLWEVITMETVAEEIRKEENILLAAKRVQDIAQSYGAEENLSVMIVRFNEGHHHHHH | soluble
16 | MSLEQASVTNDFSENKQGCIQHPWQGKKVGYIGDSITDPNCYGDNIKKYWDFLKEWLGITPFVYGISGRQWDDVPRQAEKLKKEHGGEVDAILVFMGTNDYNSSVPIGEWFTEQEEQVLSAHGEMKKMVTRKKRTPVMTQDTYRGRINIGITQLKKLFPDKQIVLLTPLHRSLANFGDKNVQPDESYQNGCGEYIDAYVQAIKEAGNIWGIPVIDFNAVTGMNPMVEEQLIYFYDAGYDRLHPDTKGQERMARTLMYQLLALPVAFEGHHHHHH | soluble
17 | MSLEQLLTNYSIETQTKSCEDFAFRIGFNDIKYMGGVSESAKDGNRKIYNEMLRYAMDKRNNIQAIIVYSMDRFSRHLASAAPDIEKLNKKNIILYSVQEQISSNDDMGIHFMNFKLSSSQFENRLRSSRARDGVRNRILMGKYPFATPPIGYNKDSDKNLVINEDGELLRKAFKMLLDGYSMMHIMKVMSRYGIIKPVNRWGEIFRNPIYAGLIVSKTNDNKPIKGIHQPIVSEKDFYKLQGIFEFKSKPRLKETDTIDIFPLKTLLQCPNGHGRLTGDIKKTKKNQPAYYKCNKCSFTASAQKANNAFLNLLSVVEFNQVFKDEFKEILDAVFENTFQEMTVKKNKLAREISIKETQLTNLFDAKFAEKINENKFEILSAKYTQSLEDMQKQLVFVTAELPEKKTFIEDCLIDLNNFEKLWDVAEYMDKQQIFNTIFKEKPSIVNNNHKIGLSNISLNPAFRSNLVELVHRKAIITGNYEGHHHHHH | not soluble
18 | MSLERSLSVTILFQDVPVSVWEINKNTPQPDWVKNCFENNTMVWYDNRLKILVKAINPSPKRDVKLGLRDTMLGYYGGGFVMGNIGDYFDATNGRVLSKKKFYKQYVINEEGHHHHHH | not soluble
